Measured values published in patent publication US20080026996A1, “Selective Vpac2 Receptor Reptide Agonists” (ELI LILLY AND COMPANY, priority 2004, published 2008).
Where no end group is shown, it is not given here. [ ]: non-standard residue; d: D form. The star is where a group is joined. Hexanoyl = CCCCCC(=O)*; Aib = CC(C)(N)C(=O)O

B1: P261 (peptide)
peptide: Hexanoyl-HSDAVFTDNYTRLR[Aib]QVAA[Aib]KYLQSIKNKRYGGPSSGAPPPS
modifications: ends and bridges not checked
B2: P119 (peptide)
peptide: Hexanoyl-HSDAVFTDNYTRLLAKLALQKYLQSIKNKRYGGPSSGAPPPS
notes: also called VPAC2-P119
B3: P31 (peptide)
peptide: Hexanoyl-HSDAVFTDNYTRLRKQVAAKKYLQSIKNKRYGGPSSGAPPPS
notes: also called VPAC2-P31
B4: P292 (peptide)
peptide: Hexanoyl-HSDAVFTDNYTRLR[Aib]QLAA[Aib]KYLQSIKNKGGPSSGAPPPS
modifications: ends and bridges not checked

What was measured:
rat VPAC1 receptor [1] = biological target: T1, rat VPAC1 receptor (Rattus norvegicus, UniProt P30083); assay: DiscoveRx in vitro potency, CHO-PO cells transiently transfected with rat VPAC 1 receptor DNA; format: cell-based; design: expressed in transfected cells; host or cells: CHO-PO, transient
T1 sequence (P30083 31-459): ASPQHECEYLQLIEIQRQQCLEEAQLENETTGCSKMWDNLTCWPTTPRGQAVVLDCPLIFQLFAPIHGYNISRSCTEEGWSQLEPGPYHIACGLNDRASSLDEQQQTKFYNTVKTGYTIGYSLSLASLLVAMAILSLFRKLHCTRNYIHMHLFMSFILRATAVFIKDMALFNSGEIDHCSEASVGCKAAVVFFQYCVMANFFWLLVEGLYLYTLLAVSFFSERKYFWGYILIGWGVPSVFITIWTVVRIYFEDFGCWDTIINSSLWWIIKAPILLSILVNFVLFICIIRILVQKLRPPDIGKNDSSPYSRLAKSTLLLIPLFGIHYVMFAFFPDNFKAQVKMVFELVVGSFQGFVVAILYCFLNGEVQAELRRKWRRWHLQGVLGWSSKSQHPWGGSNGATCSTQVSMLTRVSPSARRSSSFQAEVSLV
Protocol: Also, the cells are washed twice. […] The stimuli are present for 30 minutes. Then, the assay buffer is gently removed.

[2] = Rat serum stability studies (remaining active peptide by DiscoveRx cAMP on CHO-VPAC2 cells); format: in vitro ADME
How it was run: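 Rat serum, 18 h: +aprotinin aliquot at 4° C, no-aprotinin aliquot at 37° C. Then 30 min RT step, supernatant removed, 1 h shaking at 300 rpm. DiscoveRx cAMP kit on CHO-VPAC2; EC50 from cAMP data vs standards.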

human VPAC2 [3] = biological target: T2, human VPAC2 (Homo sapiens, UniProt P41587); assay: Filter binding assay, membranes of stable VPAC2 cell line, 125I-labeled VIP tracer (Table 2); details: read-out: Human VPAC2 Receptor Binding
T2 construct: expressed in transfected cells
T2 sequence (P41587 24-438): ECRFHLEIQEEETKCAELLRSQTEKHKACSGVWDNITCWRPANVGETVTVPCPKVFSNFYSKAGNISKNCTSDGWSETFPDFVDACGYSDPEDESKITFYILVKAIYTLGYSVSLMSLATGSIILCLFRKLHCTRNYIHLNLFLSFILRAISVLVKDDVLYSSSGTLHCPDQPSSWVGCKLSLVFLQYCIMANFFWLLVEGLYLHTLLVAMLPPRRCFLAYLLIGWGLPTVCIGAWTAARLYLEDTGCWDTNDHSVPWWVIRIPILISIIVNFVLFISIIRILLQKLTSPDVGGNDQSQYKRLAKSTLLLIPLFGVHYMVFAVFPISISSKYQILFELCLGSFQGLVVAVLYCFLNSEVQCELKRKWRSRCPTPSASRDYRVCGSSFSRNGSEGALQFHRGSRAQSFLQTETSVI
How it was run: (§1)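 Scintillation counting of filter-retained radioligand gave the read-out. Compounds competed with the labelled tracer (about 40000 cpm) for 2.5 μg membranes during 1 hour of shaking in HEPES pH 7.4 buffer containing 0.5% BSA.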

human VPAC1 = biological target: T3, human VPAC1 (Homo sapiens, UniProt P32241); assay: Filter binding assay, membranes of cells transiently transfected with human VPAC1, 125I-labeled VIP tracer (Table 2); design: expressed in transfected cells; details: read-out: Human VPAC1 Receptor Binding
T3 sequence (P32241 31-457): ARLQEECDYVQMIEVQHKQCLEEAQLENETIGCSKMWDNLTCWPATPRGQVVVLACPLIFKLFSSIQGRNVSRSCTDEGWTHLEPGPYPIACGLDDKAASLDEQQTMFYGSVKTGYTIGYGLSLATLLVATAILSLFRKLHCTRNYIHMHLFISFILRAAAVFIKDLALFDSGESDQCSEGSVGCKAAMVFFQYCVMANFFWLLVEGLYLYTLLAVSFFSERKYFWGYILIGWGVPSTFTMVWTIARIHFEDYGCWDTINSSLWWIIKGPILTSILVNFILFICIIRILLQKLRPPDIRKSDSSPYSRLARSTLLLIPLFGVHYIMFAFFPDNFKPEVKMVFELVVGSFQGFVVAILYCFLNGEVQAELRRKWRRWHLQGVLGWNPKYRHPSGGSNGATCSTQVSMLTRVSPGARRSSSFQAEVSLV
How it was run: as §1

human VPAC2 [4] = biological target: T2, human VPAC2; assay: Alpha screen cAMP in vitro potency, human VPAC2 receptor; format: cell-based; details: cAMP generation; single result from two analyses performed in a single run; read-out: Human VPAC2 Receptor: Alpha Screen EC50
How it was run: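 Stimulated cAMP accumulation is read by AlphaScreen after 60 min exposure of 50,000 non-enzymatically harvested cells to compound, followed by lysis with donor beads.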

human VPAC2 [5] = biological target: T2, human VPAC2; assay: DiscoveRx cAMP in vitro potency, CHO-S cell line stably expressing human VPAC2 receptor; format: cell-based; details: cAMP generation; mean of two independent runs
Protocol: Also, the cells are washed twice. The cells are incubated in assay buffer plus IBMX for 15 minutes at room temperature. […] The stimuli are present for 30 minutes. Then, the assay buffer is gently removed. […] At day 3, the assay described above for the VPAC2 receptor cell line is performed.

[6] = rat, in vivo, iv, 10 ug/kg
Protocol: (§2) An IVGTT with glucose is given immediately after T=0 to 6 animals per condition. Samples are taken at 0, 2, 4, 6, and 10 minutes after injection.
(§3) For cell handling, Plate 50,000 cells/well and keep in culture over night. Wash cell twice in PBS and add 50 μl/well stimulation medium consisting of PBS+1.2 MgCl2, 1.3 CaCl2, 2 glucose and 0.5 IBMX. Incubate 15 minutes and add 50 μl/well of the plasma samples (see layout below). Incubate 30 minutes, remove the supernatant and proceed as normal with the DiscoveRx assay. Prepare plates in duplicate. Protease and peptidase inhibitor are present in all plasma samples.

in vivo = details: Wistar, rat, iv, 10 ug/kg
Protocol: as §2, §3

Normal Wistar rats = assay: Intravenous glucose tolerance test (IVGTT); format: in vivo, rat; details: IVGTT, insulin
Protocol: Intravenous glucose tolerance test (IVGTT): Normal Wistar rats are fasted overnight and are anesthetized prior to the experiment. A blood sampling catheter is inserted into the rats. The compound is given in the jugular vein. Blood samples are taken from the carotid artery. A blood sample is drawn immediately prior to the injection of glucose along with the compound. After the initial blood sample, glucose mixed with compound is injected intravenously (i.v.). A glucose challenge of 0.5 g/kg body weight is given, injecting a total of 1.5 mL vehicle with glucose and agonist per kg body weight. The peptide concentration vary to produce the desired dose in μg/kg. Blood samples are drawn at 2, 4, 6 and 10 minutes after giving glucose. The control group of animals receives the same vehicle along with glucose, but with no compound added. In some instances, a 30 minute post-glucose blood sample is drawn. Aprotinin is added to the blood sample (250 kIU/ml blood). The serum is then analyzed for glucose and insulin using standard methodologies.
The assay uses a formulated and calibrated peptide stock in PBS. Normally, this stock is a prediluted 100 μM stock. However, a more concentrated stock with approximately 1 mg agonist per mL is used. The specific concentration is always known. Variability in the maximal response is mostly due to variability in the vehicle dose.

human VPAC2 receptor = biological target: T4, human VPAC2 receptor (human, UniProt P41587 24-438); assay: cell-based or functional assay
T4 sequence (looked up): T2 sequence (P41587 24-438)

rat VPAC1 receptor [7] = biological target: T5, rat VPAC1 receptor (rat, UniProt P30083 31-459); assay: cell-based or functional assay
T5 sequence (looked up): T1 sequence (P30083 31-459)

rat VPAC2 receptor [8] = biological target: T6, rat VPAC2 receptor (rat, UniProt P35000 23-437); assay: cell-based or functional assay
T6 sequence (looked up): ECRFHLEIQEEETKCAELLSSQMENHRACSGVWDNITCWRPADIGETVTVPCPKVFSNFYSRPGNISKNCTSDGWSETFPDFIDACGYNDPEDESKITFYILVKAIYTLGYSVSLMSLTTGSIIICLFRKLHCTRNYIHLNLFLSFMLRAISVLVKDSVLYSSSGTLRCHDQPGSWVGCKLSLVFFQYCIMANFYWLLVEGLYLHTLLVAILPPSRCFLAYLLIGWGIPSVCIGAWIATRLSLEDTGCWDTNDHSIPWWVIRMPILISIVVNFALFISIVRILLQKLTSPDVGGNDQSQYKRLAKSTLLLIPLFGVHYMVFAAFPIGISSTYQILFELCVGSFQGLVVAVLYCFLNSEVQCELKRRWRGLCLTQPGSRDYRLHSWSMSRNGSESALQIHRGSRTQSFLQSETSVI

rat VPAC1 receptor [9] = biological target: T5, rat VPAC1 receptor; assay: cell-based or functional assay; remark: listed apart in the source
rat VPAC2 receptor [10] = biological target: T6, rat VPAC2 receptor; assay: cell-based or functional assay; remark: listed apart in the source
rat VPAC2 receptor [11] = biological target: T6, rat VPAC2 receptor; assay: IC50 on rat VPAC1 over IC50 on rat VPAC2
Description: Each assay is done in duplicate and performed on two different membrane preparations.
TABLE 3 Binding data are expressed as the IC₅₀ values of tracer inhibition. A different reference compound is used as the tracer for the VPAC1 receptor and for the VPAC2 receptor. The last column represents the ratio between the IC₅₀ values on VPAC1 and VPAC2 receptor and is, thus, an index of selectivity for a receptor subtype. […] The values are given with the standard error.

rat PAC1 receptor = biological target: T7, rat PAC1 receptor (rat, UniProt P32215 20-523); assay: cell-based or functional assay
T7 sequence (looked up): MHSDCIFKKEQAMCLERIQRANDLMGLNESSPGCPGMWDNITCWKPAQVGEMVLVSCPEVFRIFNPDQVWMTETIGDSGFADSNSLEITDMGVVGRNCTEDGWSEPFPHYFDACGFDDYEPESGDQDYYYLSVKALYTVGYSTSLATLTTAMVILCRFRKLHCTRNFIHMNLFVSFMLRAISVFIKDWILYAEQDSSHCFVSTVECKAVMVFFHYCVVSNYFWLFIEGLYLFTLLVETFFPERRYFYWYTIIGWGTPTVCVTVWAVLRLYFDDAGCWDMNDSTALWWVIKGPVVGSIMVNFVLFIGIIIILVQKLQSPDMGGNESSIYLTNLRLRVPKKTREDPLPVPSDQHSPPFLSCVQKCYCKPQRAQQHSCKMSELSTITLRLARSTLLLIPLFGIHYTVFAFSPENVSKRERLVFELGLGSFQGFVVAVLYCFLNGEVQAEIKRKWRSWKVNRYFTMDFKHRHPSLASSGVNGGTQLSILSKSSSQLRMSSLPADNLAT

human VPAC1 receptor = biological target: T8, human VPAC1 receptor (human, UniProt P32241 31-457); assay: cell-based or functional assay
T8 sequence (looked up): T3 sequence (P32241 31-457)

human PAC1 receptor = biological target: T9, human PAC1 receptor (human, UniProt P41586 21-468); assay: cell-based or functional assay
T9 sequence (looked up): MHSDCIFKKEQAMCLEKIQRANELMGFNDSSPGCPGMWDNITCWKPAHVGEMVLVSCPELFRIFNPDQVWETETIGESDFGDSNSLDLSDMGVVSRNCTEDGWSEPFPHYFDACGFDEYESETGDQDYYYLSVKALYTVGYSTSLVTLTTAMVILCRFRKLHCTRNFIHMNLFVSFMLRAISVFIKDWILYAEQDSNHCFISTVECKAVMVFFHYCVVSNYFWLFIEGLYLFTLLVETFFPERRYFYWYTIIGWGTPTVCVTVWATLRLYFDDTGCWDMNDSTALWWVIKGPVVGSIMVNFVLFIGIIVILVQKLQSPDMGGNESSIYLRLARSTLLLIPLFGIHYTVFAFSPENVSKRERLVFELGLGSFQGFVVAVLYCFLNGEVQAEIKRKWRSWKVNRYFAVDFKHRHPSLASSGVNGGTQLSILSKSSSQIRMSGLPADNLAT

Molecule | EC50 cAMP, Alpha Screen (human VPAC2 receptor) [nM] | EC50 cAMP, DiscoveRx (rat VPAC1 receptor [7]) [nM] | EC50 cAMP, DiscoveRx (rat VPAC2 receptor [8]) [nM] | cAMP max (rat VPAC1 receptor [9]) | VPAC1/VPAC2 (EC50 ratio) (rat VPAC2 receptor [10]) | cAMP max (rat VPAC2 receptor [10]) | VPAC1/VPAC2 (ratio of IC50 values) (rat VPAC2 receptor [11]) | EC50 cAMP, DiscoveRx (human VPAC2 receptor) [nM] | adenylate cyclase potency ratio compared to PACAP-27 (rat PAC1 receptor) [fold] | further results
HSDAVFTDNYTRLLAKVAAKKYLQSIKNKRYGGPSSGAPPPS [Agonist P89] | – | – | – | – | – | – | – | – | – | EC50 (rat VPAC1 receptor [1]): 0.02 nM; Rat Serum Stability (Estimated purity in % after 72 hours) [2]: <0.4%; IC50 (human VPAC2 [3]): 0.15 nM; IC50 (human VPAC1): 162 nM; EC50 (human VPAC2 [4]): 1.23 nM; EC50 (human VPAC2 [5]): 0.7 nM; Exposure (10 μg/kg, Vdist in μg/(nM * kg)) [6]: 0.64 µg/nM/kg; AUC(0-t) (in vivo): 0.523 nM·h; Cmax (in vivo): 5.45 nM; half-life (in vivo): 1.32 min; % increase AUC: Dose = 0.5 μg/kg (Normal Wistar rats; 0.5 μg/kg): 110%; % increase AUC: Dose = 10 μg/kg (Normal Wistar rats; 10 μg/kg): 280%
B1 | 0.09 | 0.35 | 0.04 | 126 | 200 | 78.5 | 363 | – | – | –
B2 | 0.42 | 0.07 | – | 207 | 32 | 133 | 47 | 0.34 | > 200 | –
B3 | 0.13 | 0.44 | – | 200 | 174 | 134 | 546 | 0.11 | > 200 | EC50 cAMP, DiscoveRx (human VPAC1 receptor): 6 nM; EC50 cAMP, DiscoveRx (human PAC1 receptor): 116 nM
B4 | 0.23 | 1.91 | 0.07 | 124 | 100 | 79.1 | 269 | – | – | –
